Measured values taken from the RNAGym collection of RNA variant scans (doi:10.7554/elife.90254).

B1: OR4K15 (parent)
chain: GUUAACGGUCAUAGGCCAUGGAAACUAGGAGCACCAUUUCGCUGCCAGUGAAGAAAUGAACAAAGAAAAUCUGGGCCAGGCAGGCAUCAAAAGAAAUAGUCUUGCGCUCAACCAGAAAGUCUGUAAUCAUUUUAAGGGUA

Variants of: B1
Experiment: self-cleavage, relative activity (ratio to wild type); higher = more cleavage; in vitro, sequencing; the parent is a self-cleaving ribozyme

**Q.** Which self-cleavage does the source give for GUUAACGGUCAUAGGCCAUGGAAACUAGGAGCACCAUUUCGCUGCCAGUGAAGAAAUGAACAGAGAAAAUCUGGGCCAGGCAGGCAUCAAAAGAAAUAGUCUUGCGCUCAACCGGAAAGUCUGUAAUCAUUUUAAGGGUA [A63G A114G] here?
**A.** 0.86

**Q.** For GUUAACGGUCAUAGGCCAUGGAAACUAGGAGCACCAUUUCGCUGCCAGUGAAGAAAUGAACAGAGAAAAUCUGGGCCAGGCUGGCAUCAAAAGAAAUAGUCUUGCGCUCAACCAGAAAGUCUGUAAUCAUUUUAAGGGUA [A63G A82U], which self-cleavage is on record?
**A.** 0.24

**Q.** Which self-cleavage does the source give for GUUAACGGUCAUAGGCCAUGGAAACUAGGAGCACCAUUUCGCUGCCAGUGAAGAAAUGAACAGAGAAAAUCUGGGCCAGGCGGGCAUCAAAAGAAAUAGUCUUGCGCUCAACCAGAAAGUCUGUAAUCAUUUUAAGGGUA [A63G A82G] here?
**A.** 0.74

**Q.** Which self-cleavage does the source give for GUUAACGGUCAUAGGCCAUGGAAACUAGGAGCACCAUUUCGCUGCCAGUGAAGAAAUGAACUAAGAAAAUCUGGGCCAGGCAGGCAUCAAAAGAAAUAGUCCUGCGCUCAACCAGAAAGUCUGUAAUCAUUUUAAGGGUA [A62U U102C] here?
**A.** 1.91

**Q.** With GUUAACGGUCAUAGGCCAUGGAAACUAGGAGCACCAUUUCGCUGCCAGUGAAGAAAUGAACAGAGAAAAUCUGGGCCAGGCAGGCAUCAAAAGAAAUAGUCUUGUGCUCAACCAGAAAGUCUGUAAUCAUUUUAAGGGUA [A63G C105U] as the variant, how does the self-cleavage read?
**A.** 0.05

**Q.** Which self-cleavage does the source give for GUUAACGGUCAUAGGCCAUGGAAACUAGGAGCACCAUUUCGCUGCCAGUGAAGAAAUGAACAGAGAAAAUCUGGGCCAGGCAGGCAUUAAAAGAAAUAGUCUUGCGCUCAACCAGAAAGUCUGUAAUCAUUUUAAGGGUA [A63G C88U] here?
**A.** 1.69

**Q.** For GUUAACGGUCAUAGGCCAUGGAAACUAGGAGCACCAUUUCGCUGCCAGUGAAGAAAUGAACUAAGAAAAUCUGGGCCAGGCAGGCAUCAAAAGAAAUAGUCUUGCGCUCAACCAGAAAGUCUGUAAUCAUUAUAAGGGUA [A62U U132A], which self-cleavage is on record?
**A.** 2.19

**Q.** For GUUAACGGUCAUAGGCCAUGGAAACUAGGAGCACCAUUUCGCUGCCAGUGAAGAAAUGAACAGAGGAAAUCUGGGCCAGGCAGGCAUCAAAAGAAAUAGUCUUGCGCUCAACCAGAAAGUCUGUAAUCAUUUUAAGGGUA [A63G A66G], which self-cleavage is on record?
**A.** 1.7

**Q.** For GUUAACGGUCAUAGGCCAUGGAAACUAGGAGCACCAUUUCGCUGCCAGUGAAGAAAUGAACAGAGCAAAUCUGGGCCAGGCAGGCAUCAAAAGAAAUAGUCUUGCGCUCAACCAGAAAGUCUGUAAUCAUUUUAAGGGUA [A63G A66C], which self-cleavage is on record?
**A.** 0.27

**Q.** For GUUAACGGUCAUAGGCCAUGGAAACUAGGAGCACCAUUUCGCUGCCAGUGAAGAAAUGAACUAAGAAAAUCUGGGCCAGGCAAGCAUCAAAAGAAAUAGUCUUGCGCUCAACCAGAAAGUCUGUAAUCAUUUUAAGGGUA [A62U G83A], which self-cleavage is on record?
**A.** 1.98

**Q.** For GUUAACGGUCAUAGGCCAUGGAAACUAGGAGCACCAUUUCGCUGCCAGUGAAGAAAUGAACUAAGAAAAUCUGGGCCAGGCAGGCAUCAAAAGAAAUAGUCUUGCGCUCAACCAGAAAGUCUGUAAUCACUUUAAGGGUA [A62U U130C], which self-cleavage is on record?
**A.** 0.84

**Q.** With GUUAACGGUCAUAGGCCAUGGAAACUAGGAGCACCAUUUCGCUGCCAGUGAAGAAAUGAACAGAGAAAAUCUGGGCCUGGCAGGCAUCAAAAGAAAUAGUCUUGCGCUCAACCAGAAAGUCUGUAAUCAUUUUAAGGGUA [A63G A78U] as the variant, how does the self-cleavage read?
**A.** 0.22

**Q.** Which self-cleavage does the source give for GUUAACGGUCAUAGGCCAUGGAAACUAGGAGCACCAUUUCGCUGCCAGUGAAGAAAUGAACAGAGAAAAUCUGGGCCGGGCAGGCAUCAAAAGAAAUAGUCUUGCGCUCAACCAGAAAGUCUGUAAUCAUUUUAAGGGUA [A63G A78G] here?
**A.** 0.31

**Q.** With GUUAACGGUCAUAGGCCAUGGAAACUAGGAGCACCAUUUCGCUGCCAGUGAAGAAAUGAACACAGAAAAUCUGGGCCAGGCAGGCAUCAGAAGAAAUAGUCUUGCGCUCAACCAGAAAGUCUGUAAUCAUUUUAAGGGUA [A63C A90G] as the variant, how does the self-cleavage read?
**A.** 1.79

**Q.** With GUUAACGGUCAUAGGCCAUGGAAACUAGGAGCACCAUUUCGCUGCCAGUGAAGAAAUGAACAGAGAAAAUCUGGGCCAGGCAGGCAUCAAAAGAGAUAGUCUUGCGCUCAACCAGAAAGUCUGUAAUCAUUUUAAGGGUA [A63G A95G] as the variant, how does the self-cleavage read?
**A.** 2.26

**Q.** Which self-cleavage does the source give for GUUAACGGUCAUAGGCCAUGGAAACUAGGAGCACCAUUUCGCUGCCAGUGAAGAAAUGAACACAGAAAAUCUGGGCCAGGCAGGCAUCAAAAGAAAUAGUCUUGCGCUCAACCAGAAAGUCUGUAAUCAUUCUAAGGGUA [A63C U132C] here?
**A.** 2.13

**Q.** For GUUAACGGUCAUAGGCCAUGGAAACUAGGAGCACCAUUUCGCUGCCAGUGAAGAAAUGAACAGAGAAAAUCUGGGCCAGGCAGGCAUCAAAAGAAAUAGUCUUGCGCUCAACCAGAAAGUCUGUAAUUAUUUUAAGGGUA [A63G C128U], which self-cleavage is on record?
**A.** 1.95

**Q.** With GUUAACGGUCAUAGGCCAUGGAAACUAGGAGCACCAUUUCGCUGCCAGUGAAGAAAUGAACAGAGAAAAUCUGGGCCAGGCAGGCAUCAAAAGGAAUAGUCUUGCGCUCAACCAGAAAGUCUGUAAUCAUUUUAAGGGUA [A63G A94G] as the variant, how does the self-cleavage read?
**A.** 1.98

**Q.** With GUUAACGGUCAUAGGCCAUGGAAACUAGGAGCACCAUUUCGCUGCCAGUGAAGAAAUGAACUAAGAAAAUCUGGACCAGGCAGGCAUCAAAAGAAAUAGUCUUGCGCUCAACCAGAAAGUCUGUAAUCAUUUUAAGGGUA [A62U G75A] as the variant, how does the self-cleavage read?
**A.** 0.06

**Q.** Which self-cleavage does the source give for GUUAACGGUCAUAGGCCAUGGAAACUAGGAGCACCAUUUCGCUGCCAGUGAAGAAAUGAACAGAGAAAAUCUGGGCCAGGCAGGCAUCAAAAGAAAUAGUCUUGCGCUCAACCAGAAAGUCUGUGAUCAUUUUAAGGGUA [A63G A125G] here?
**A.** 0.64
